Experimental data reported in patent publication US7803921B2, “Sulfotransferase 1E1 sequence variants” (Mayo Foundation for Medical Education and Research, priority 2002, dated 2010).
Residue numbers refer to the chain shown, from its start. Marks after values point to notes of the source that are not given here.

B1: Ala32Val: SULT1E1 allozyme with valine in place of alanine at residue 32 (thymine at nucleotide 95) (protein, UniProt P49888 1-294, looked up, variant A32V)
Sulfotransferase 1E1: MNSELDYYEKFEEVHGILMYKDFVKYWDNVEVFQARPDDLVIATYPKSGTTWVSEIVYMIYKEGDVEKCKEDVIFNRIPFLECRKENLMNGVKQLDEMNSPRIVKTHLPPELLPASFWEKDCKIIYLCRNAKDVAVSFYYFFLMVAGHPNPGSFPEFVEKFMQGQVPYGSWYKHVKSWWEKGKSPRVLFLFYEDLKEDIRKEVIKLIHFLERKPSEELVDRIIHHTSFQEMKNNPSTNYTTLPDEIMNQKLSPFMRKGITGDWKNHFTVALNEKFDKHYEQQMKESTLKFRTEI
B2: Asp22Tyr: SULT1E1 allozyme with tyrosine in place of aspartic acid at residue 22 (thymine at nucleotide 64) (protein, UniProt P49888 1-294, looked up, variant D22Y)
Sulfotransferase 1E1: B1 Sulfotransferase 1E1 with D22Y, V32A
B3: Pro253His: SULT1E1 allozyme with histidine in place of proline at residue 253 (adenine at nucleotide 758) (protein, UniProt P49888 1-294, looked up, variant P253H)
Sulfotransferase 1E1: B1 Sulfotransferase 1E1 with V32A, P253H
B4: Wild type: reference human SULT1E1 enzyme (SEQ ID NO:7, GenBank U08098), recombinantly expressed in COS-1 cells (protein, listed as Homo sapiens)
chain: B1 Sulfotransferase 1E1 with V32A

Tested on: SULT1E1
Experiment: Enzyme thermal stability (T50) of recombinant SULT1E1 allozymes
Type: physicochemical, human
Conditions: in words
Method: Enzyme thermal stability was measured by diluting COS-1 cell supernatant preparations for each of the recombinant SULT1E1 allozymes and incubating them in a water bath for 15 minutes at temperatures ranging from 28° C. to 46° C. The samples were placed on ice immediately after incubation. Aliquots of the same supernatant preparations also were kept on ice as controls. Enzyme activity was measured in both heated and unheated samples, and blank values were determined for each temperature studied.

Molecule	T50 value as compared to the wild-type enzyme
B1	reduced T50 values
B2	reduced T50 values

Same assay, conditions: temperature resulting in 50% thermal inactivation, 15 minutes at 28° C. to 46° C.; mean ± SEM (n = 3)

Molecule	Thermal Stability T50
B1	36.7 ± 1.2 °C
B2	35.0 ± 0.32^c ° C.
B3	38.4 ± 0.46 °C
B4	38.5 ± 0.92 °C

Tested on: SULT1E1
Experiment: SULT1E1 allozyme substrate kinetics (apparent Km, Vmax) with E2 and PAPS as cosubstrates
Type: biochemical, human
Conditions: 50 nM E2, PAPS 2.7 nM to 150 nM; mean ± SEM (n = 3)
Description: Other biochemical properties of allozymes, such as apparent Km values, also can be altered relative to the reference SULT1E1. Apparent Km values can be calculated, for example, by using the method of Wilkinson with a computer program written by Cleland. Wilkinson (1961) Biochem. J. 80:324-332 and Cleland (1963) Nature 198:463-365. As described herein, the apparent Km values for PAPS varied more than 3-fold among the allozymes tested (Asp22Tyr, Ala32Val, and Pro253His).
Apparent Km values for each allozyme were determined with both cosubstrates. Initial experiments used 10-fold serial dilutions of E2 that ranged from 10^−3 to 10^−9 M. Apparent Km values were calculated by using the method of Wilkinson with a computer program written by Cleland (see, Wilkinson (1961) Biochem J 80:324-332; and Cleland (1963) Nature 198:463-365). Maximal activity for all allozymes was found at E2 concentrations near 100 nM. A second set of experiments was performed in the presence of 0.4 μM PAPS using eight concentrations of E2 that varied from 3.1 nM to 400 nM.

Molecule	Vmax, PAPS as Varied Substrate
B1	5.7 ± 0.1^a nmol/hr/β-galactosidase units
B2	1.9 ± 0.1^a nmol/hr/β-galactosidase units
B3	34.8 ± 0.2^a nmol/hr/β-galactosidase units
B4	27.2 ± 0.7^a nmol/hr/β-galactosidase units

Same assay, conditions: 50 nM E2, PAPS 2.7 nM to 150 nM; mean ± SEM (n = 3); read-out: Apparent Km, PAPS as Varied Substrate

Molecule	Km [nM]
B1	65 ± 4.2
B2	240 ± 9.2
B3	180 ± 7.5
B4	56 ± 2.9

Same assay, conditions: 0.4 μM PAPS, E2 3.1 nM to 400 nM; mean ± SEM (n = 3)

Molecule	Vmax, E2 as Varied Substrate
B1	22.8 ± 6.6 nmol/hr/β-galactosidase units
B2	4.7 ± 0.3^b nmol/hr/β-galactosidase units
B3	58.6 ± 2.5^b nmol/hr/β-galactosidase units
B4	26.8 ± 4.4 nmol/hr/β-galactosidase units

Same assay, conditions: 0.4 μM PAPS, E2 3.1 nM to 400 nM; mean ± SEM (n = 3); read-out: Apparent Km, E2 as Varied Substrate

Molecule	Km [nM]
B1	44 ± 5
B2	220 ± 30
B3	97 ± 7
B4	30 ± 5

Same assay, conditions: PAPS as substrate, versus wild type

Molecule	apparent Km for PAPS, fold higher than the wild type enzyme
B1	comparable to those of the wild type SULT1E1 enzyme
B2	3.3 fold
B3	~2.8 fold

Same assay, conditions: estradiol as substrate, versus wild type

Molecule	apparent Km for estradiol, fold higher than the wild type enzyme
B1	comparable to those of the wild type SULT1E1 enzyme
B2	6 fold
B3	approximately 2.5 fold
